{"source": "patent US7700353B2", "about": "“Compositions and methods for inducing apoptosis in tumor cells” (E-P Therapeutics, Inc., priority 1998, dated 2010)", "molecules": {"B1": {"name": "hEb: chemically synthesized human Eb peptide of pro-IGF-I, 77 amino acid residues (SEQ ID NO:1) (peptide, listed as Homo sapiens)", "chain": "RSVRAQRHTDMPKTQKYQPPSTNKNTKSQRRKGWPKTHPGGEQKEGTEASLQIRGKKKEQRREIGSRNAECRGKKGK"}, "B2": {"name": "rtEa-4: recombinant Ea-4 peptide of rainbow trout pro-IGF-I, 74 amino acid residues (SEQ ID NO: 2) (protein)", "chain": "RSVRAQRHTDMPRTPKVSTAVQNVDRGTERRTAQHPDKTKTKKKPLSGHSHPSCKEVHQKNSSRGNTGGRNYRM", "modifications": "Oncorhynchus mykiss"}}, "key": {"[1]": {"test_system": "neuroblastoma SK-N-F1 cells", "assay": "Soft agar colony formation (hEb peptide)", "type": "cell-based, human", "settings": "3.2 μM", "protocol": "The effect of hEb-peptide on in vitro colony formation was tested in the presence or absence of either the mature hlGF-I or fetal bovine serum (FIG. 12). Human neuroblastoma SK-N-F1 cells (10^4) were mixed with 0.4% soft agar supplemented with or without hEb peptide (3.2 µM), IGF-I (5 nM) and/or fetal bovine serum (2.5%), as indicated. The cell mixtures were seeded on top of a solidified basal medium DMEM/F12 (1:1) containing 0.5% agar. Medium supplemented with various peptides or serum were overlaid on top of the solidified cell layer followed by a two-week period incubation at 37° C. in a 5% CO2 humidified incubator. The percentage of cells formed into colonies with a diameter greater than 100 µm Macpherson, Tissue culture methods and applications, pp 276-80: N.Y. Academic Press, 1973) were scored in triplicate and subjected to Student t-test analysis. At least three independent assays under each treatment conditions were carried out."}, "[2]": {"test_system": "chorioallantoic membrane (CAM) of chick embryos", "assay": "Chick embryo chorioallantoic membrane (CAM) angiogenesis assay", "type": "in vivo", "settings": "day 7", "protocol": "A suitable assay is the chick embryo chorioallantoic membrane (CAM) assay described by Crum et al. Science 230:1375 (1985). See also, U.S. Pat. No. 5,001,116, hereby incorporated by reference, which describes the CAM assay. Briefly, the Ea-4 peptide (40 µg and 80 µg), endostatin (5 µg and 10 µg) and a PBS control buffer were delivered onto the chorioallantoic membrane (CAM) of three-day old chick embryos. The CAMs were photographed in ovo with a digital camera on day 7. The angiogenic response was assessed by counting the number of intersect points of the blood vessels spread out in a defined field (vessel density). […] The effect is quantified in the histogram in FIG. 17.\nEach were dissolved in PBS, and various and known amounts of hEb-peptide (250 µg, 500 µg and 1000 µg respectively) and human endostatin (10 µg and 20 µg respectively) were applied to the CAM. Pictures were taken on day 7 for vessel density determination."}, "[3]": {"test_system": "MDA-MB-231 cells on chicken CAM", "assay": "Human breast cancer cells seeded on chicken CAM", "type": "in vivo", "settings": "single or multiple doses, five day old chicken embryos", "excerpt": "The invasion of MDA-MB-231 cells in the chicken embryos was further confirmed by immunocytochemistry. […] The activity in the widely accepted chicken model, provides ample support for the belief that the methods of the invention can be used to treat cancer in animals as well as humans."}, "[4]": {"test_system": "various human cancer cell lines", "assay": "Killing of cancer cells in vitro (% cell growth)", "type": "cell-based", "settings": "various amounts, about 48 hours", "protocol": "FIG. 20 depicts the effects of synthetic hEB-peptide on killing of various human cancer cells. About 1×10^6 cells of cancer cells were seeded in each well of a 96-well plate and various amounts of synthetic hEb-peptide were added as indicated. The cells were cultured for about 48 hours and the % of cell growth was determined.\nAbout 1×10^6 cells of various human cancer cell lines were seeded in each well of a 96-well culture plate with various amounts of synthetic human Eb-peptide (shEb-peptide). It is specifically contemplated by the inventors that in any of the examples of the preferred embodiments described herein, synthetic or recombinant E domain peptides can be used. After incubation for about 48 hours, the growth of cells in each well was determined and compared to non-hEb-peptide controls."}, "[5]": {"test_system": "ZR75-1 and MDA-MB 231 cell lines (single-cell clones)", "assay": "Morphological change in single-cell malignant clones", "type": "cell-based, human", "protocol": "Because each of these tumor cell lines obtained from ATCC contains a mixed population of tumorous and nontumorous cells, only between 25-40% of the cells from each cell line responded to induction by rtEa-4-peptide. […] About 1 -2×10^5 cells resuspended in their respective basal medium without FBS were plated in a 6-well culture chamber. Different amounts of trout Ea-4-peptide (0.4 µM, 0.8 µM and 1.6 µM) or control protein (1.6 µM) were added to the wells, and the cell cultures were incubated at 37° C. under a humidified atmosphere of 5% CO2. Twenty-four hours after initiation of the treatment, cells were observed under an Olympic inverted microscope equipped with phase contrast objective lenses (200× magnification)."}, "[6]": {"test_system": "HT1080 cells", "assay": "Matrigel invasion assay", "type": "cell-based, human", "settings": "for # invaded cells/view (MIC): Matrigel insert; for # invaded cells/view (MIC) / # invaded cells/view (CIC): 24 hours; for # invaded cells/view (CIC): control insert", "protocol": "Invasion assays were conducted in BIOCOAT MATRIGEL invasion chambers following the procedure provided by Becton Dickinson Labware (Bedford, Mass.; 40480 and 40481 guidelines). According to these procedures, 1×10^6 of HT1080 cells in DMEM supplemented with 1.25% FBS, with Ea-4 peptide (0.17 µM and 0.34 µM), or the same amount of the control protein, were plated in each insert of the Matrigel or control invasion chambers. The inserts were placed in the respective chambers containing DMEM medium supplemented with 10% FBS, and the chambers were incubated at 37° C. under a humidified atmosphere of 5% CO2 for 24 hours. After removal of the non-invaded cells with cotton swabs, the invaded cells on the other side of the membranes were stained with the Diff-Quick T stain (Becton Dickinson Labware, Bedford, Mass.) and observed under an Olympic inverted microscope (magnification, 200×). Control proteins were prepared from E. coli cells carrying the expression plasmid without the Ea-4-peptide gene by the same purification method (Tian et al., 1999). The assay was repeated three times."}, "[7]": {"test_system": "MDA-MB-231(C)", "assay": "Induction of apoptosis (TUNEL assay)", "type": "cell-based, human", "settings": "about 1.5 μM, two to three days", "protocol": "FIG. 23 depicts induction of apoptosis in MDA-MB-231 cells by rtEA4-peptide. MDA-MB-231 cells were treated wit control protein or rtEa4-peptide (about 1.5 μM) for two days, and three days, and were then subjected to TUNEL assay. (A) Treatment with rtEa4-peptide for two days; (B) Treatment with rtEa-4-peptide for three days.\nFIG. 24 depicts the effect of rtEa4-peptide on induction of apoptosis in MDA-MB-231 cells treated with rtEa4-peptide. (A) Detection of apoptosis by TUNEL assay; (B) Detection of apoptosis y detecting the induction of the activated caspase-3 activity. MDA-MB-231 cells were treated with about 1.5 μM of rtEa4-peptide for about 48 hours, fixed and subjected to TUNEL assay or stained with anti-human activated caspase-3 serum conjugated with rhodamine. Hydrogen peroxide (H2O2), 0.5 mM, was used to induce apoptosis as a positive control."}}, "data": [{"molecule": "B1", "values": [{"measurement": "inhibition of colony formation", "setting": "[1]; absence of serum and growth factors, colonies >100 μm", "result": 64, "unit": "%"}, {"measurement": "inhibitory effect on anchorage-independent growth", "setting": "[1]; over all medium conditions", "result": "59-73%"}, {"measurement": "inhibition of colony formation", "setting": "[1]; presence of FBS (2.5%)", "result": 73, "unit": "%"}, {"measurement": "inhibition of colony formation", "setting": "[1]; presence of hIGF-I (5 nM)", "result": 59, "unit": "%"}, {"measurement": "vessel density", "setting": "[2]; 250, 500 and 1000 μg on CAM", "result": "dose-dependent reduction"}, {"measurement": "growth and invasion of MDA-MB-231 cells and induction of blood vessel formation on chicken CAM", "setting": "[3]", "result": "inhibited"}, {"measurement": "killing of cancer cells", "setting": "[4]", "result": "different degrees of killing"}]}, {"molecule": "B2", "values": [{"measurement": "extent of the morphological change", "setting": "[5]; 0.4 to 1.6 μM", "result": "proportional to the amounts"}, {"measurement": "cells responsive to treatment", "setting": "[5]; purified single-cell clones, 0.4-1.6 μM, 24 hours", "result": "~95", "unit": "%"}, {"measurement": "% Invasion", "setting": "[6]; 0.17 μM", "result": 19, "unit": "%"}, {"measurement": "% Reduction of invasion", "setting": "[6]; 0.17 μM", "result": 52, "unit": "%"}, {"measurement": "# invaded cells/view (MIC)", "setting": "[6]; 0.17 μM", "result": "30 ± 5", "unit": "cells/view"}, {"measurement": "# invaded cells/view (CIC)", "setting": "[6]; 0.17 μM", "result": "157 ± 6", "unit": "cells/view"}, {"measurement": "% Invasion", "setting": "[6]; 0.34 μM", "result": 15, "unit": "%"}, {"measurement": "% Reduction of invasion", "setting": "[6]; 0.34 μM", "result": 62, "unit": "%"}, {"measurement": "# invaded cells/view (MIC)", "setting": "[6]; 0.34 μM", "result": "24 ± 1", "unit": "cells/view"}, {"measurement": "# invaded cells/view (CIC)", "setting": "[6]; 0.34 μM", "result": "157 ± 6", "unit": "cells/view"}, {"measurement": "invasive activity", "setting": "[6]; 0.17 and 0.34 μM", "result": "dose-dependent reduction"}, {"measurement": "blood vessel branching", "setting": "[2]; 40 μg and 80 μg on CAM of three-day old chick embryos", "result": "inhibitory effect"}, {"measurement": "growth and invasion of MDA-MB-231 cells and induction of blood vessel formation on chicken CAM", "setting": "[3]", "result": "inhibited"}, {"measurement": "TUNEL staining", "setting": "[7]", "result": "TUNEL staining positive"}]}]}
